In patent US12559863B2, “Macrocyclic modulators of disease associated protein misfolding and aggregation” (RESQ BIOTECH, priority 2017, dated 2026):

Columns and labels:
Aβ42-GFP = molecular target: T1, Aβ42-GFP (Homo sapiens, UniProt P05067); assay: High-throughput sequencing of pSICLOPPS vectors isolated after bacterial sorting for enhanced Aβ42-GFP fluorescence; details: for Number of reads: after second round of sorting; for Normalized read number (%): Table 3, cyclo-TXXR tetrapeptides
T1 construct: a chimeric fusion of the human Aβ(1-42) peptide (Aβ42) with GFP; expressed in transfected cells; host or cells: E. coli BL21(DE3)
Outline: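 Peptide inserts recovered from repeatedly sorted high-GFP clones were sequenced on Ion Torrent, excluding stop-codon-containing reads. Sorting used BL21(DE3) cells carrying pETAβ42-GFP plus the tetra-, penta- and hexapeptide pSICLOPPS library. Peptide production was induced with 0.002% L-arabinose and the reporter with 0.1 mM IPTG at OD600 ~0.5, at 37° C.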

SOD1(A4V)-GFP = molecular target: T2, SOD1(A4V)-GFP (Homo sapiens, UniProt P00441, A5V); assay: Fluorescence of E. coli cells co-expressing SOD1(A4V)-GFP and cyclic peptide; assay type: cell-based; details: co-expression of cyclic peptide; compared to random cyclic peptides from initial library
T2 construct: polyHis; expressed in transfected cells; host or cells: E. coli Origami 2(DE3) (BL21(DE3) for the FACS screen)
Description: Electrocompetent E. coli BL21(DE3) cells (Novagen, USA) carrying either the expression vector pETSOD1(A4V)-GFP, which produces SOD1(A4V)-GFP under control of the strong bacteriophage T7 promoter, or pETAβ42-GFP, which produces Aβ42-GFP under control of the T7 promoter, were co-transformed with the combined pSICLOPPS-NuX1X2X3-X5 vector library. Approximately 10^8 transformants carrying both the vector library and either pETSOD1(A4V)-GFP or pETAβ42-GFP vectors were harvested, pooled together, and grown in Luria-Bertani (LB) liquid medium containing either 0.005% (pETSOD1(A4F)-GFP) or 0.002% (pETAβ42-GFP) L-arabinose—the inducer of cyclic peptide production—at 37° C. with shaking. When the optical density at 600 nm (OD600) of the bacterial culture was about 0.5, 0.01 (pETSOD1(A4F)-GFP) or 0.1 (pETAβ42-GFP) mM isopropyl-β-D-thiogalactoside (IPTG) was added to the medium to induce overexpression of the reporter. […] The isolated cells were re-grown and screened for additional rounds in an identical manner until the desired enrichment in high-fluorescence clones was achieved.
For SOD1 or SOD1-GFP production, BL21(DE3) (Novagen, USA) or Origami 2(DE3) cells (Novagen, USA) were transformed with the corresponding SOD1- or SOD1-GFP-encoding vector, either with the appropriate pSICLOPPS vector or alone. […]
Bacterial cells corresponding to 1 mL culture with OD600=1 were harvested by centrifugation and re-suspended in 100 μL phosphate-buffered saline (PBS), transferred to a 96-well FLUOTRAC 200 plate (Greiner Bio One International, Austria), and their fluorescence was measured using a TECAN Safire II-Basic plate reader (Tecan, Austria). Excitation was set at 488 nm and emission was measured at 510 nm.

T2 sequence (P00441 whole entry A5V): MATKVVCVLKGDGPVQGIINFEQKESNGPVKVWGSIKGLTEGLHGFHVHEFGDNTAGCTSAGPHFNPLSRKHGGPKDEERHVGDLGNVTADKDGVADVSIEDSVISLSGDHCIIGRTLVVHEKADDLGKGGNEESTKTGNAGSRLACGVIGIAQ

TPSWFD [AβC6-65] was tested, and the “Reads/Total hexapeptide reads (%)” value (Aβ42-GFP; Table 4) was 0.023%, the “Reads/Total peptide reads (%)” value (Aβ42-GFP; Table 4) was 0.002% and the Number of reads (Aβ42-GFP; Table 4, hexapeptides) was 105.

TPVLVD [AβC6-48] was tested, and the “Reads/Total hexapeptide reads (%)” value (Aβ42-GFP; Table 4) was 0.052%, the “Reads/Total peptide reads (%)” value (Aβ42-GFP; Table 4) was 0.005% and the Number of reads (Aβ42-GFP; Table 4, hexapeptides) was 236.

TPVWFD [AβC6-1] was tested, and the “Reads/Total hexapeptide reads (%)” value (Aβ42-GFP; Table 4) was 29.151%, the “Reads/Total peptide reads (%)” value (Aβ42-GFP; Table 4) was 2.912% and the Number of reads (Aβ42-GFP; Table 4, hexapeptides) was 131,935.

TPVWLD [AβC6-80] was tested, and the “Reads/Total hexapeptide reads (%)” value (Aβ42-GFP; Table 4) was 0.012%, the “Reads/Total peptide reads (%)” value (Aβ42-GFP; Table 4) was 0.001% and the Number of reads (Aβ42-GFP; Table 4, hexapeptides) was 55.

In the case of TSVEYE [AβC6-41], the “Reads/Total hexapeptide reads (%)” value (Aβ42-GFP; Table 4) is reported as 0.068%, the “Reads/Total peptide reads (%)” value (Aβ42-GFP; Table 4) is reported as 0.007% and the Number of reads (Aβ42-GFP; Table 4, hexapeptides) is reported as 307.

With TVTWFD [AβC6-6] the “Reads/Total hexapeptide reads (%)” value (Aβ42-GFP; Table 4) was 3.778%, the “Reads/Total peptide reads (%)” value (Aβ42-GFP; Table 4) was 0.377% and the Number of reads (Aβ42-GFP; Table 4, hexapeptides) was 17,100.

In the case of cyclo-SHSPT [AβC5-387], the “Reads/Total SASPT-like reads (%)” value (Aβ42-GFP; Table 2) is reported as 0.337%, the “Reads/Total pentapeptide reads (%)” value (Aβ42-GFP; Table 2) is reported as 0.002% and the “Reads/Total peptide reads (%)” value (Aβ42-GFP; Table 2) is reported as 0.002%. For the same substance, the Number of reads (Aβ42-GFP; Table 2) was 89.

cyclo-SICPT [AβC5-216] was tested, and the “Reads/Total SASPT-like reads (%)” value (Aβ42-GFP; Table 2) was 1.957%, the “Reads/Total pentapeptide reads (%)” value (Aβ42-GFP; Table 2) was 0.013% and the “Reads/Total peptide reads (%)” value (Aβ42-GFP; Table 2) was 0.011%. The Number of reads (Aβ42-GFP; Table 2) was 516.

With cyclo-SITPT [AβC5-380] the “Reads/Total SASPT-like reads (%)” value (Aβ42-GFP; Table 2) was 0.356%, the “Reads/Total pentapeptide reads (%)” value (Aβ42-GFP; Table 2) was 0.002% and the “Reads/Total peptide reads (%)” value (Aβ42-GFP; Table 2) was 0.002%. It also gave a Number of reads (Aβ42-GFP; Table 2) of 94.

With cyclo-TASFW (cyclic) the “SOD1(A4V)-GFP fluorescence of E. coli cells” value (SOD1(A4V)-GFP) was “highest levels of cellular SOD1(A4V)-GFP fluorescence”.

For cyclo-TDQR (cyclic) [AβC4B-9], the “Normalized read number (%)” value (Aβ42-GFP) was 2.09%.

In the case of cyclo-TFSMW (cyclic), the “SOD1(A4V)-GFP fluorescence of E. coli cells” value (SOD1(A4V)-GFP) is reported as “highest levels of cellular SOD1(A4V)-GFP fluorescence”.

In the case of cyclo-TLGR (cyclic) [AβC4B-86], the “Normalized read number (%)” value (Aβ42-GFP) is reported as 0.1697%.

For cyclo-TLIR (cyclic) [AβC4B-41], the “Normalized read number (%)” value (Aβ42-GFP) was 0.775%.

In the case of cyclo-TLWR (cyclic) [AβC4B-80], the “Normalized read number (%)” value (Aβ42-GFP) is reported as 0.2568%.

cyclo-TRGR [AβC4-34] was tested, and the “Normalized read number (%)” value (Aβ42-GFP) was 0.3047%.

In the case of cyclo-TRRR (cyclic) [AβC4-41], the “Normalized read number (%)” value (Aβ42-GFP) is reported as 0.2467%.

cyclo-TTCR (cyclic) [AβC4-9] was tested, and the “Normalized read number (%)” value (Aβ42-GFP) was 1.248%.

cyclo-TTGR [AβC4-35] was tested, and the “Normalized read number (%)” value (Aβ42-GFP) was 0.295%.

In the case of cyclo-TTRR (cyclic) [AβC4-11], the “Normalized read number (%)” value (Aβ42-GFP) is reported as 1.2%.

In the case of cyclo-TTSR (cyclic) [AβC4-31], the “Normalized read number (%)” value (Aβ42-GFP) is reported as 0.3241%.
